Laboratory results taken from patent US20220306759A1 (CYTOMX THERAPEUTICS, published 2022).
Positions count from the first letter of the chain named.

B1: anti-human CD71 TF01-2001 activatable antibody (antibody, human IgG1, kappa)
heavy: not shown
light: QGQSGQGQFCPWSYYLIGDCDIGGGSSGGSISSGLLSGRSDNHGGGSDIQMTQSPSSLSASVGDRVTITCSASSSVYYMYWFQQKPGKAPKLWIYSTSNLASGVPSRFSGSGSGTDYTLTISSMQPEDFATYYCQQRRNYPYTFGQGTKLEIKRTVAAPSVFIFPPSDEQLKSGTASVVCLLNNFYPREAKVQWKVDNALQSGNSQESVTEQDSKDSTYSLSSTLTLSKADYEKHKVYACEVTHQGLSSPVTKSFNRGEC
notes: also called huCD71 TF01-2001
B2: anti-human CD71 TF02-2001 activatable antibody (antibody, human IgG1, kappa)
heavy: not shown
light: QGQSGQGNLCTEHSFALDCRSYGGGSSGGSISSGLLSGRSDNHGGGSDIQMTQSPSSLSASVGDRVTITCSASSSVYYMYWFQQKPGKAPKLWIYSTSNLASGVPSRFSGSGSGTDYTLTISSMQPEDFATYYCQQRRNYPYTFGQGTKLEIKRTVAAPSVFIFPPSDEQLKSGTASVVCLLNNFYPREAKVQWKVDNALQSGNSQESVTEQDSKDSTYSLSSTLTLSKADYEKHKVYACEVTHQGLSSPVTKSFNRGEC
B3: CD71 Ab21.12-PEG2-vc-MMAD (antibody, human IgG1, kappa)
heavy: not shown
light: DIQMTQSPSSLSASVGDRVTITCSASSSVYYMYWFQQKPGKAPKLWIYSTSNLASGVPSRFSGSGSGTDYTLTISSMQPEDFATYYCQQRRNYPYTFGQGTKLEIKRTVAAPSVFIFPPSDEQLKSGTASVVCLLNNFYPREAKVQWKVDNALQSGNSQESVTEQDSKDSTYSLSSTLTLSKADYEKHKVYACEVTHQGLSSPVTKSFNRGEC
modifications: PEG2-vc-MMAD conjugated to the antibody; chain and residues not stated
notes: antibody drug conjugate of Ab21.12
B4: CD71 Ab 21.12-spdb-DM4 (antibody, human IgG1, kappa)
heavy: not shown
light: B3 light
modifications: spdb-DM4 conjugated to the antibody; chain and residues not stated
notes: as for B3
B5: CD71 TF02.13-3001-spdb-DM4 (antibody, human IgG1, kappa)
heavy: not shown
light: QGQSGQGNLCTEHSAALDCRSYGGGSSGGSAVGLLAPPGGLSGRSDNHGGSDIQMTQSPSSLSASVGDRVTITCSASSSVYYMYWFQQKPGKAPKLWIYSTSNLASGVPSRFSGSGSGTDYTLTISSMQPEDFATYYCQQRRNYPYTFGQGTKLEIKRTVAAPSVFIFPPSDEQLKSGTASVVCLLNNFYPREAKVQWKVDNALQSGNSQESVTEQDSKDSTYSLSSTLTLSKADYEKHKVYACEVTHQGLSSPVTKSFNRGEC
modifications: spdb-DM4 conjugated to the antibody; chain and residues not stated
B6: CD71 TF02.13-3001-PEG2-vc-MMAD (antibody, human IgG1, kappa)
heavy: not shown
light: B5 light
modifications: PEG2-vc-MMAD conjugated to the antibody; chain and residues not stated
B7: CD71 Ab 21.12-vc-MMAE (antibody, human IgG1, kappa)
heavy: not shown
light: B3 light
modifications: vc-MMAE conjugated to the antibody; chain and residues not stated
notes: as for B3
B8: CD71 TF02.13-2001-spdb-DM4 (antibody, human IgG1, kappa)
heavy: not shown
light: B2 light with F15A
modifications: spdb-DM4 conjugated to the antibody; chain and residues not stated
B9: anti-CD71 M21 monoclonal antibody (antibody, V domains shown)
VH: EVQLQESGTVLARPGASVKMSCKASGYTFTSYWMHWVKQRPGQGLEWIGAIYPGNSETGYNQNFKGKAKLTAVTSASTAYMDLSSLTNEDSAVYYCTRENWDPGFAFWGQGTLITVSA
VL: DIVMTQTPAIMSASPGEKVTITCSASSSVYYMYWFQQKPGTSPKLWIYSTSNLASGVPVRFSGSGSGTSYSLTISRMEAEDAATYYCQQRRNYPYTFGGGTKLEIKR
notes: mouse monoclonal antibody from hybridoma; also called muM21; Mab21
B10: CD71 TF02.13-3001-vc-MMAE (antibody, human IgG1, kappa)
heavy: not shown
light: B5 light
modifications: vc-MMAE conjugated to the antibody; chain and residues not stated
B11: anti-human CD71 TF02.13-3007 activatable antibody (antibody, human IgG1, kappa)
heavy: not shown
light: B5 light with N47I
B12: anti-human CD71 TF02.13-3008 activatable antibody (antibody, human IgG1, kappa)
heavy: not shown
light: B5 light with N47Q
B13: anti-human CD71 TF02.13-3011 activatable antibody (antibody, human IgG1, kappa)
heavy: not shown
light: B5 light with H48P
B14: anti-human CD71 TF02.13-3013 activatable antibody (antibody, human IgG1)
heavy: not shown
VL: QGQSGQGNLCTEHSAALDCRSYGGGSSGGSAVGLLAPPGGLSGRSANIGGSDIQMTQSPSSLSASVGDRVTITCSASSSVYYMYWFQQKPGKAPKLWIYSTSNLASGVPSRFSGSGSGTDYTLTISSMQPEDFATYYCQQRRNYPYTFGQGTKLEIK
notes: without spacer 851
B15: anti-human CD71 TF02.13-2011 activatable antibody (antibody, human IgG1, kappa)
heavy: not shown
light: B2 light with F15A, H43P
B16: anti-human CD71 TF02.13-2013 activatable antibody (antibody, human IgG1, kappa)
heavy: not shown
light: B2 light with F15A, D41A, H43I
B17: anti-human CD71 TF02.13-2007 activatable antibody (antibody, human IgG1, kappa)
heavy: not shown
light: B2 light with F15A, N42I
B18: anti-human CD71 TF02.13-2012 activatable antibody (antibody, human IgG1, kappa)
heavy: not shown
light: B2 light with F15A, D41A, H43P
B19: anti-human CD71 TF02.13-2008 activatable antibody (antibody, human IgG1, kappa)
heavy: not shown
light: B2 light with F15A, N42Q

The binders below were run against T1, recombinant human CD71 protein (human, UniProt P02786 89-760) (assay: ELISA, 1 µg/mL CD71, uncleaved).
T1 construct: also called recombinant CD71
T1 sequence (P02786 89-760 limits assumed): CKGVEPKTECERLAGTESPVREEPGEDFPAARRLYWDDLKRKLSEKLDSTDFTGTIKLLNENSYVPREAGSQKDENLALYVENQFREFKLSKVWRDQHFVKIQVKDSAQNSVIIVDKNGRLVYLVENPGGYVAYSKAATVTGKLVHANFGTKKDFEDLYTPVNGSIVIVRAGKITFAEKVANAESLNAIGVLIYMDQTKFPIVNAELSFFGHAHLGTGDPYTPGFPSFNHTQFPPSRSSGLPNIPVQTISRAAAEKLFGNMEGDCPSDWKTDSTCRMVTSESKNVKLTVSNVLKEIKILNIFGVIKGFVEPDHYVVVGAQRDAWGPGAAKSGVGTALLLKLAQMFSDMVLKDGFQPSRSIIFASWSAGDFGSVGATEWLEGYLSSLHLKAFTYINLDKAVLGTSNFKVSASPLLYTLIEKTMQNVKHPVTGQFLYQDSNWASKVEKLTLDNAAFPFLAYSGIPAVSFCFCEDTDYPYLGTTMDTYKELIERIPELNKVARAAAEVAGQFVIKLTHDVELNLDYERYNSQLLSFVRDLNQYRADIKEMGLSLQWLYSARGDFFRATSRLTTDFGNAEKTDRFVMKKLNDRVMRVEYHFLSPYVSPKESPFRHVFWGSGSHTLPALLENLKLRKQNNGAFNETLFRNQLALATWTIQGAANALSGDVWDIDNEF
Description: (§1) The amount of bound antibody was detected by incubation and detection by goat anti-human antibody conjugated to horseradish peroxidase and Ultra TMB (Thermo Fisher Scientific) detection.

| Binder | Kd [nM] |
| --- | --- |
| B1 | 70 |
| B2 | 21.4 |

Each binder was assayed against T2, human CD71 (transferrin receptor protein 1, TfR1) on human cell lines (human, UniProt P02786 1-760) (assay: FACS on MDA MB 231 cells).
T2 construct: whole, on cells; also called huCD71
T2 sequence (P02786 whole entry): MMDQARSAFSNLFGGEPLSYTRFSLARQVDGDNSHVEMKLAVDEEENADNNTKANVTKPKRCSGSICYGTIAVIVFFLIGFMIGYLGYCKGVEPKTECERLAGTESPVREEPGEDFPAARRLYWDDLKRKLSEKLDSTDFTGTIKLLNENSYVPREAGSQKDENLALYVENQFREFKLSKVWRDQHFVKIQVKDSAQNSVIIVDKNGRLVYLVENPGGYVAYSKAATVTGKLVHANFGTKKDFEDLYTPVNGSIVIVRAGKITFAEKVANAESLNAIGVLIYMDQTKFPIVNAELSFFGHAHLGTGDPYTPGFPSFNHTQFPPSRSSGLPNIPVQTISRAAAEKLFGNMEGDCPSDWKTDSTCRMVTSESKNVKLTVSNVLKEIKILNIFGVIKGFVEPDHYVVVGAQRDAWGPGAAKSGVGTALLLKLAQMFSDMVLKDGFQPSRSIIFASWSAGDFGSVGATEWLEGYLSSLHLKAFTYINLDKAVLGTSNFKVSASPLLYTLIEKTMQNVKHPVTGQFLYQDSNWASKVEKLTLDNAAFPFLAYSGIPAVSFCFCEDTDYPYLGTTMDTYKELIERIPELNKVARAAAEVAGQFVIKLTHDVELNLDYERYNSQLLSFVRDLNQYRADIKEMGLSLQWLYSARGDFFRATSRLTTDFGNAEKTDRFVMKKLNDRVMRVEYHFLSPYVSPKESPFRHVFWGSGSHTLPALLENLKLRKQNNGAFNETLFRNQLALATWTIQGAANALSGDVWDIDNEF
Description: (§2) In this study, the binding of the antibodies of the present disclosure to the indicated cell lines were performed using a standard FACS labelling method.

| Binder | Kd [nM] |
| --- | --- |
| B3 | 1.47 |
| B4 | 1.24 |
| B5 | 46.9 |
| B6 | 52.6 |

These binders were tested against T2, human CD71 (transferrin receptor …) (assay: FACS on HCC1806 cells).
Description: as §2

| Binder | Kd [nM] |
| --- | --- |
| B7 | 6.4 |
| B5 | ~200 |
| B8 | ~200 |

The binders below were run against T2, human CD71 (transferrin receptor …) (assay: FACS on BxPC3 cells).

| Binder | Kd [nM] |
| --- | --- |
| B9 | ~3 |

These binders were tested against T1, recombinant human CD71 protein (assay: ELISA; Kd against CD71 21.12).
Description: as §1

| Binder | ME (masking efficiency) [fold] |
| --- | --- |
| B1 | 500 |
| B2 | 153 |

The binders below were run against T2, human CD71 (transferrin receptor …) (assay: FACS on H292 cells).
Description: as §2

| Binder | Bmax (MFI) | Kd [nM] |
| --- | --- | --- |
| B7 | 1600 | 1.33 |
| B10 | 1850 | 53.8 |

These binders were tested against T2, human CD71 (transferrin receptor …) (assay: FACS on H292 cells, uncleaved).
Description: In this study, the binding of the antibodies of the present disclosure to the indicated cell lines were performed using a standard FACS labelling method. […] These activatable antibodies include the light chain of the correspondingly named sequence listed above in Table C. The cells were labeled with the indicated test article at the indicated concentrations and subsequently detected with an Alexa Fluor 647 labeled goat anti-human IgG secondary antibody.

| Binder | Kd [nM] |
| --- | --- |
| B11 | 86.7 |
| B12 | 97.8 |
| B13 | 67.4 |
| B14 | 78.3 |
| B15 | 57.1 |
| B16 | 70.3 |
| B17 | 70.3 |
| B18 | 39.1 |
| B19 | 90 |

These binders were tested against T1, recombinant human CD71 protein (assay: ELISA, 1 µg/mL recombinant human CD71, uncleaved).
Description: as §1

| Binder | Kd [nM] |
| --- | --- |
| B11 | 2.21 |
| B12 | 2.61 |
| B13 | 0.778 |
| B14 | 4.91 |
| B15 | 4.27 |
| B16 | 3.25 |
| B18 | 1.64 |
| B19 | 15.1 |
